The values below come from patent US6335019B1, “Methods for treating sensitivity to protein allergen using peptides which include a T cell epitope recognized by a T cell receptor specific for the protein allergen” (Immulogic Pharmaceutical Corp., priority 1989, dated 2002).

Test [1] relates to human IgE (ragweed allergic patient sera). Nature of the test: SDS-PAGE Western blot (and ELISA) of ragweed allergic patient IgE binding to pollen, affinity purified and recombinant Amb a I / Amb a II. The arrangement: key to IgE binding, summarized Western blot data: −: no signal over background; +−: barely discernable over background; +: clearly positive; ++: strongly positive; +++: highly positive. The procedure: As represented in FIG. 1A, a selected monoclonal antibody (designated 4B5/B7) which recognizes an Amb a I preparation unsubjected to denaturing conditions was used to affinity purify from pollen extract a single protein, which is referred to as affinity purified Amb a I. This was carried out, using known techniques, by producing the desired monoclonal antibody, isolating it in large quantities from ascites and immobilizing it on Sepharose (Pharmacia). Aqueous pollen extract was passed over the monoclonal antibody-containing column and a protein species was eluted.
(§1) Furthermore, full-length and truncated cDNAs encoding several members of the Amb a I multigene family, as well as Amb a II, were cloned in-frame into the expression vector pTrc99 (Amann et al. Gene, 69:301-315, (1988)) and transformed into the JM109 host. Expression of recombinant Amb a I and Amb a II protein was induced by 1 mM isopropyl-β-D-thiogalactopyranoside, cells were harvested, lysozyme treated, sonicated and insoluble inclusion bodies recovered by a low speed centrifugation. Recombinant Amb a I and Amb a II protein present in the recovered pellet was solubilized in buffer containing 8M urea, 50 mM Tris HC1 pH8.0, 50 mM NaCl, 1 mM EDTA, 1 mM dithiothreitol, 1 mM phenylmethylsulfonyl fluoride. After solubilization, the crude urea lysate was dialyzed at 4° C. against PBS. […] This antigenic cross-reactivity is consistent with the observed sequence homology of the cDNAs (see FIG. 16).
Comparison of human IgE binding to recombinant Amb a I and Amb a II proteins with anti-peptide and monoclonal anti-Amb a I antibodies have provided data consistent with the conclusion that the N-terminal portion (historically referred to as the β-region) of Amb a IA includes the major IgE eptiope(s).
Affinity purified Amb a I was electrophoresed, Western transferred (Towbin et al., Proc. Natl. Acad. Sci. USA, 76:4350 (1979)) and probed with a variety of antibodies, including IgE from an allergic patient (FIG. 17). In pollen extract Amb a I is not only present as an intact 38-KD species, but also characterized by its component 26KD alpha chains and 12-KD beta chains which are formed by enzymatic cleavage. The intact 38-KD species and the alpha chain are clearly detected using rabbit anti-Amb a I, polyclonal affinity purified anti-RAE 16 and monoclonal anti-Amb a I JBIE3-4 (FIG. 17); RAE 16 peptide has the sequence RTDKDLLENGAIC derived from amino-acids […] of Amb a IB, FIG. 16). Affinity purified Amb a I (partial sequence presented in Table 1) as well as chromatographically purified Amb a II (partial sequence presented in Table 2) are bound on Western blots by these antibodies as well as by patient IgE (FIG. 17). The goat anti-Amb a I polyclonal antibody also binds multiple Amb a I and Amb a II species on a two dimensional Western blot of pollen extract (FIG. 18). The Western blot was performed as outlined below. […]
Background: Immunoblotting shows a protein as a band on a membrane.

Test [2] relates to rabbit anti-Amb a I polyclonal antibody. The experiment in a line: Western blot with rabbit anti-Amb a I polyclonal antibody (FIG. 17). The test is classed as binding. An excerpt: As is also represented in FIG. 1A, rabbit polyclonal antibodies were produced using the King Antigen E preparation. […] These antibodies were also shown, using a similar technique, to bind to the affinity purified Amb a I described previously (FIG. 17).
It is clear from the antibody reactivity that the 4B5/B7 affinity purified Amb a I has a recognition pattern similar to that of the Amb a I of pollen and skin test reagent with both rabbit polyclonal anti-Amb a I and JB1E3-4 anti-Amb a I monoclonal antibody (FIG. 17).
Affinity purified Amb a I was electrophoresed, Western transferred (Towbin et al., Proc. Natl. Acad. Sci. USA, 76:4350 (1979)) and probed with a variety of antibodies, including IgE from an allergic patient (FIG. 17). In pollen extract Amb a I is not only present as an intact 38-KD species, but also characterized by its component 26KD alpha chains and 12-KD beta chains which are formed by enzymatic cleavage. The intact 38-KD species and the alpha chain are clearly detected using rabbit anti-Amb a I, polyclonal affinity purified anti-RAE 16 and monoclonal anti-Amb a I JBIE3-4 (FIG. 17); RAE 16 peptide has the sequence RTDKDLLENGAIC derived from amino-acids 343-353 of Amb a IB, FIG. 16). […]

Test [3] concerns rabbit antisera directed against an Amb a II sequence (amino acid 326-338; RAE 50. K). The experiment in a line: Western blot of recombinant proteins with monospecific anti-peptide antisera against RAE 50. K. The test is classed as binding. The settings on record: Western blots, data not shown. An excerpt: Proteins or peptides encoded by the cDNA of the present invention can be used, for example, as “purified” allergens. Such purified allergens are useful in the standardization of allergen extracts which are key reagents for the diagnosis and treatment of ragweed allergy. Furthermore, by using peptides based on the sequences listed in FIGS. 2 through 16, anti-peptide antisera or monoclonal antibodies can be made using standard methods. Such reagents can be specifically directed against individual isoforms of Amb a I or Amb a II (i.e., directed against divergent regions/epitopes of the molecule) or can be specific for all forms Amb a I or Amb a II (i.e, directed against common sequences/epitopes). These sera or monoclonal antibodies, directed against Amb a I or Amb a II, can be used to standardize allergen extracts. One such monospecific anti-peptide antisera has already been successfully produced.

Test [4] deals with goat anti-Amb a I antibody. Nature of the test: Western blot of E. coli-expressed recombinant Amb a I / Amb a II with goat anti-Amb a I antibody (FIG. 19). The test is classed as binding. The method, then:
as §1
Isoelectric focusing was done on a Hoeffer gel apparatus with 15 μg of crude soluble pollen protein. The gel consisted of 7.5% acrylamide with 3.5% Pharmalytes pH 4.5-5.3 (Pharmacia) and 3.5% Ampholines pH 3.5-10 (LKB), run at 13W for 3.5 hours until a constant voltage was reached. The gel section was placed on a slab of 10% acrylamide SDS-PAGE and electrophoresed for 3.5 hours at 40 mA according to the protocol cited. The proteins were transferred overnight in phosphate buffer to 0.1 micron nitrocellulose (Schleicher and Schuell) at 0.2A. The blot was rinsed in blot solution (25 mM Tris-CHl pH 7.5, 0.171 M NaCl, 0.05% Tween-20; Sigma). The first antibody incubation was overnight at room temperature with a […] of goat anti-Amb a I IgC (obtained from Dr. David Marsh) in blot solution. The excess first antibody was removed with three 15 minute rinses with blot solution. The second antibody was a 1:2,500 dilution of biotinylated swine anti-goat IgG (Boehringer-Manneheim) in blot solution for two hours. The blot was then rinsed with blot solution three times for 15 minutes and incubated for 1 hr in blot solution with 2 μCi I^125 streptavidin (Amersham). The blots were rinsed with blot solution until the waste wash was down to background. The blot was then exposed to film at —80° C. overnight. In the case of one-dimensional SDS-PAGE Western blots (FIGS. 17, 19 and 20) the isoelectric focusing step was omitted. When human sera was used to probe the Western blots (FIGS. 17 and 20), 10% human plasma in 1% milk in blot solution was incubated overnight with the blot prior to using as second antibody biotinylated goat anti-human IgE.

B1: chromatographically purified Amb a II: chromatographically purified Amb a II (Antigen K) from ragweed pollen (protein)
chain: GEEVDILPSPNDTRRSLQGCEAHNIIDKCWRCKPDWAENRQALGNCAQGFGKATHGGKWGDIYMVTSDQDDDVVNPKEGTLRFGATQDRPLWIIFQRDMIIYLQQEMVVTSDKTIDGRGAKVELVYGGITLMNVKNVIIHNIDIHDVRVLPGGRIKSNGGPAIPRHQSDGDAIHVTGSSDIWIDHCTLSKSFDGLVDVNWGSTGVTISNCKFTHHEKAVLLGASDTHFQDLKMHVTLAYNIFTNTVHERMPRCRFGFFQIVNNFYDRWDKYAIGGSSNPTILSQGNKFVAPDFIYKKNVCLRTGAQEPEWMTWNWRTQNDVLENGAIFVASGSDPVLTAEQNAGMMQAEPGDMVPQLTMNAGVLTCSPGAPC
Turning to B1, the “Human IgE binding (in words)” value in test [1] (Western blot (FIG. 17) and/or ELISA, ragweed allergic patient IgE) is “bound”. Moreover, the “Binding by rabbit anti-Amb a I polyclonal antibodies (in words)” value in test [2] is “cross-reactive B-cell epitopes”.

B2: Amb a II: E. coli expressed recombinant Amb a II (Antigen K) (protein)
chain: LYFTLALVTLVQAGRLGEEVDILPSPNDTRRSLQGCEAHNIIDKCWRCKPDWAENRQALGDCAQGFGKATHGGKWGDIYMVTSDQDDDVVNPKEGTLRFGATQDRPLWIIFQRDMIIYLQQEMVVTSDTTIDGRGAKVELVYGGITLMNVKNVIIHNIDIHDVRVLPGGRIKSNGGPAIPRHQSDGDAIHVTGSSDIWIDHCTLSKSFDGLVDVNWGSTGVTISNCKFTHHEKAVLLGASDTHFQDLKMHVTLAYNIFTNTVHERMPRCRFGFFQIVNNFYDRWDKYAIGGSSNPTILSQGNKFVAPDFIYKKNVCLRTGAQEPEWMTWNWRTQNDVLENGAIFVASGSDPVLTAEQNAGMMQAEPGDMVPQLTMNAGVLTCSPGAPC
Regarding B2, the “Binding by rabbit anti-RAE 50. K antisera (in words)” value in test [3] is listed as “binds specifically”. In addition, the “IgE binding, summarized Western blot data” value in test [1] (patient 151) is recorded as “+”; in test [1] (patient 222), “+”; in test [1] (patient 291), “+−”; in test [1] (patient 295) it was “−”; in test [1] (patient 296) it was “−”. For the same molecule, the “Binding by goat anti-Amb a I antibody (in words)” value in test [4] is given as “binds specifically”.
